This is an account of results in article PMC12540712.

This experiment concerns the target And-1 HMG domain, 984-1129 (UniProt O75717). The experiment can be described thus: GST-HMG pull-down of SepB, immunoblot. Particulars: reference: wild-type SepB; sites T826.

In the case of “And-1 SepB domain, 330-984 (from UniProt O75717) T826A SepB”, the “binding against the reference” value is on record as “stronger”.
